Target: Hsp90 600-709 (Saccharomyces cerevisiae (strain ATCC …, UniProt P02829))
Assay: Kd quoted from earlier work (method not stated here)

- Kd: 13.3 µM
B1: AIP 172-315 (protein)
chain: DEEKAKAVPLIHQEGNRLYREGHVKEAAAKYYDAIACLKNLQMKEQPGSPEWIQLDQQITPLLLNYCQCKLVVEEYYEVLDHCSSILNKYDDNVKAYFKRGKAHAAVWNAQEAQADFAKVLELDPALAPVVSRELRALEARIRQ
